Assay results published in patent US20200299675A1 (UNIVERSITY OF ROCHESTER, published 2020).

Molecular target: T1, streptavidin (Streptomyces avidinii, UniProt P22629 37-163)
T1 construct: also called streptavidin-coated beads; streptavidin-coated magnetic beads
Test: direct binding assay with plate-immobilized streptavidin and HRP-conjugated anti-FLAG antibody
Experimental: For the Keap1 binding assay, Keap1 was immobilized on microtiter plates by incubating 100 μL of a 4 μM protein solution in PBS buffer overnight at 4° C., followed by washing (3×150 μL of PBS with 0.5% Tween-20) and blocking with 0.5% bovine serum albumin in PBS for 1.5 h at room temperature. After washing, each well was incubated with 100 μL of purified FLAG-tagged peptide at varying concentrations for 1 hour at room temperature. After washing three times with wash buffer, each well was incubated with 100 μL of 1:2500 dilution of HRP-conjugate mouse anti-FLAG polyclonal antibody (Sigma-Aldrich) for 1 hour at room temperature. After three washing step with wash buffer, 100 μL of 2.2 mM o-phenylenediamine dihydrochloride, 4.2 mM urea hydrogen peroxide, 100 mM dibasic sodium phosphate, and 50 mM sodium citrate, pH 5.0, were added to each well, followed by measurement of the absorbance at 450 nm after 10-20 min using a Tecan Infinite 1000 plate reader. Equilibrium dissociation constants (KD) were determined by fitting the dose-response curves to a 1:1 binding isotherm equation via nonlinear regression using SigmaPlot. Mean values and standard deviations were calculated from experiments performed in triplicate.

T1 sequence (P22629 37-163, tags left off): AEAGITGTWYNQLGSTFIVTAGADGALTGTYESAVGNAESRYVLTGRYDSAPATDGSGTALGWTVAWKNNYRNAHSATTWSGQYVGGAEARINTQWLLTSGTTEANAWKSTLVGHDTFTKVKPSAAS

binding result: no binding
B1: CBD alone (other)
chain: MKIEEGKLTNPGVSAWQVNTAYTAGQLVTYNGKTYKCLQPHTSLAGWEPSNVPALWQLQNNGNNGLELRHG
